According to publication PMC4474781 (Environmental microbiology, 2015):

Biological target: T1, oxidoreductase FAD/NAD(P)-binding subunit (Dred_1685), His6-tagged, co-expressed with Dred_1686 (Desulfotomaculum reducens MI-1, UniProt A4J559 1-262)
T1 sequence (looked up): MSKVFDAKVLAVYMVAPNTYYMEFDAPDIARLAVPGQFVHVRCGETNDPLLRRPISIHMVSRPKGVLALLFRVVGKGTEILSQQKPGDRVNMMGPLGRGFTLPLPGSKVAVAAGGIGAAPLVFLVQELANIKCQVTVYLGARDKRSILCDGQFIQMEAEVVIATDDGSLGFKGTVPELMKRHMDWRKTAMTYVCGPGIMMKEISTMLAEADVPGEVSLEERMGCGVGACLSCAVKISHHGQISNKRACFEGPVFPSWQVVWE
Assay: pull-down

stoichiometry N: 1
B1: dihydroorotate dehydrogenase 1B (Dred_1686), untagged, co-expressed with His6-Dred_1685 (enzyme, Desulfotomaculum reducens MI-1, UniProt A4J560 1-304, looked up)
chain: MKLNLAVKIGQLDMINPVTTASGTFGYGQEYSPYVDLNQLGAIVVKGTTLEPREGNPTPRLVETPSGILNSIGLQNSGVDYLLEHYVPFFKKLQTNVIVNISGNTAEEYGQLAARLDEADGIAALEVNISCPNVKKGGMAFGGDFRTAAEVTKVVKNSTALPVIVKLSPNVTDIAEIARAVEGAGADGLSVINTLLGMAIDVRKRKPVLGNTMGGLSGPAVKPVALRAVWQVYKAVHIPIIGMGGIMNATDALEFILAGAQAVSVGTANFVNPYATKEIIQGMEKYLMENGIGDINELVGAAHL
